In patent publication US20220363770A1 (Amgen, published 2022):
Substitutions are numbered along the chain they refer to.

T1: human PAC1 receptor (human, UniProt P41586 24-468)
T1 sequence: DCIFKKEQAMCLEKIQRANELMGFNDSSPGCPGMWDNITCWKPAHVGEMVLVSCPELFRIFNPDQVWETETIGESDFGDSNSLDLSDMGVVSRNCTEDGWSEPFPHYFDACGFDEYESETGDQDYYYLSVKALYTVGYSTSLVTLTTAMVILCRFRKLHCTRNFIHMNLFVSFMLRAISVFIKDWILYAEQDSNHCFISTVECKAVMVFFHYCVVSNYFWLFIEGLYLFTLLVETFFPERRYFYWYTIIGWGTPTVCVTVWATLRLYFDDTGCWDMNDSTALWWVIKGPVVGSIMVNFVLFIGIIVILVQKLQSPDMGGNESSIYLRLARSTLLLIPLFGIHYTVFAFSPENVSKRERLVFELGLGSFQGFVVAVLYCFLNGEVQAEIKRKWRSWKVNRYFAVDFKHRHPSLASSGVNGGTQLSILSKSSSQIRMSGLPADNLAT

B1: iPS:454837 (bispecific antibody, human IgG1, kappa, lambda, N297G)
light 1: QSVLTQPPSVSAAPGQKVTISCSGSRSNIGIKAVSWYQQLPGTAPKLLIYDNNKRPSGIPDRFSGSKSGTSATLGITGLQTGDEADYYCGTWDSRLSAVVFGGGTKLTVLGQPKAAPSVTLFPPSSEELQANKATLVCLISDFYPGAVTVAWKADSSPVKAGVETTTPSKQSNNKYAAKSYLSLTPEQWKSHRSYSCQVTHEGSTVEKTVAPTECS
heavy 1: QVQLVESGGGVVQPGRSLRLSCAASGFTFSSFGMHWVRQAPGKGLEWVAVISFDGSIKYSVDSVKGRFTISRDNSKNTLFLQMNSLRAEDTAVYYCARDRLNYYESSGYYHYKYYGMAVWGQGTTVTVSSASTKGPSVFPLAPSSKSTSGGTAALGCLVKDYFPEPVTVSWNSGALTSGVHTFPAVLQSSGLYSLESVVTVPSSSLGTQTYICNVNHKPSNTKVDKKVEPKSCDKTHTCPPCPAPELLGGPSVFLFPPKPKDTLMISRTPEVTCVVVDVSHEDPEVKFNWYVDGVEVHNAKTKPCEEQYGSTYRCVSVLTVLHQDWLNGKEYKCKVSNKALPAPIEKTISKAKGQPREPQVYTLPPSRKKMTKNQVSLTCLVKGFYPSDIAVEWESNGQPENNYKTTPPVLKSDGSFFLYSKLTVDKSRWQQGNVFSCSVMHEALHNHYTQKSLSLSPGK
light 2: EIVLTQSPATLSLSPGERATLSCRASKAVGWSLHWYQQKPGQAPRLLIKYASQSLSGIPARFSGSGSGTDFTLTISSLEPEDFAVYYCHQSSRLPFTFGPGTKVDIKRTVAAPSVFIFPPSDEQLKSGTASVVCLLNNFYPREAKVQWKVDNALQSGNSQESVTEQDSKDSTYSLESTLTLSKADYEKHKVYACEVTHQGLSSPVTKSFNRGEC
heavy 2: not shown
B2: iPS:454849 (bispecific antibody, human IgG1, kappa, lambda, N297G)
light 1: B1 light 1
heavy 1: B1 heavy 1
light 2: B1 light 2 with A28S
heavy 2: not shown
B3: iPS:454851 (bispecific antibody, human IgG1, kappa, lambda, N297G)
light 1: B1 light 1
heavy 1: B1 heavy 1
light 2: B1 light 2 with A28S
heavy 2: not shown
B4: iPS:454861 (bispecific antibody, human IgG1, kappa, lambda, N297G)
light 1: B1 light 1 with R26S, I31N, K32N, A33Y, A72T
heavy 1: B1 heavy 1 with E105R, S107F, H111G, K113H
light 2: B1 light 2 with K27R, A28S, W31L, S32A, R93F
heavy 2: not shown
B5: iPS:454841 (bispecific antibody, human IgG1, kappa, lambda, N297G)
light 1: B1 light 1
heavy 1: B1 heavy 1
light 2: B1 light 2 with A28S
heavy 2: not shown
B6: iPS:454843 (bispecific antibody, human IgG1, kappa, lambda, N297G)
light 1: B1 light 1
heavy 1: B1 heavy 1
light 2: B1 light 2 with A28S
heavy 2: not shown
B7: iPS:454847 (bispecific antibody, human IgG1, kappa, lambda, N297G)
light 1: B1 light 1
heavy 1: B1 heavy 1
light 2: B1 light 2 with A28S
heavy 2: not shown
B8: iPS:454855 (bispecific antibody, human IgG1, kappa, lambda, N297G)
light 1: B1 light 1
heavy 1: B1 heavy 1
light 2: B1 light 2 with A28S, W31Y
heavy 2: not shown
B9: iPS:454839 (bispecific antibody, human IgG1, kappa, lambda, N297G)
light 1: B1 light 1
heavy 1: B1 heavy 1
light 2: B1 light 2 with A28S
heavy 2: not shown
B10: iPS:454865 (bispecific antibody, human IgG1, kappa, lambda, N297G)
light 1: B1 light 1 with R26S, I31N, K32N, A33Y, A72T
heavy 1: B1 heavy 1 with E105R, S107F, H111G, K113H
light 2: B1 light 2 with A28S, W31Q
heavy 2: not shown
B11: iPS:454845 (bispecific antibody, human IgG1, kappa, lambda, N297G)
light 1: B1 light 1
heavy 1: B1 heavy 1
light 2: B1 light 2 with A28S
heavy 2: not shown
B12: iPS:454853 (bispecific antibody, human IgG1, kappa, lambda, N297G)
light 1: B1 light 1
heavy 1: B1 heavy 1
light 2: B1 light 2 with A28S
heavy 2: not shown
B13: iPS:454859 (bispecific antibody, human IgG1, kappa, lambda, N297G)
light 1: B1 light 1 with R26S, I31N, K32N, A33Y, A72T
heavy 1: B1 heavy 1 with E105R, S107F, H111G, K113H
light 2: B1 light 2 with G30W, W31H, S32N, R93M
heavy 2: not shown
B14: iPS:454863 (bispecific antibody, human IgG1, kappa, lambda, N297G)
light 1: B1 light 1 with R26S, I31N, K32N, A33Y, A72T
heavy 1: B1 heavy 1 with E105R, S107F, H111G, K113H
light 2: B1 light 2 with A28S, W31Q
heavy 2: not shown
B15: iPS:454857 (bispecific antibody, human IgG1, kappa, lambda, N297G)
light 1: B1 light 1 with R26S, I31N, K32N, A33Y, A72T
heavy 1: B1 heavy 1 with E105R, S107F, H111G, K113H
light 2: B1 light 2 with A28S, W31Q
heavy 2: not shown

How the values were obtained:
[1] = target: T1, human PAC1 receptor; test: cell-based or functional assay
[2] = target: human CGRP receptor (human, UniProt Q16602 23-461; O60894 27-148); test: cell-based or functional assay
Chain of human CGRP receptor (Q16602 23-461 limits assumed, chain 1 of 2): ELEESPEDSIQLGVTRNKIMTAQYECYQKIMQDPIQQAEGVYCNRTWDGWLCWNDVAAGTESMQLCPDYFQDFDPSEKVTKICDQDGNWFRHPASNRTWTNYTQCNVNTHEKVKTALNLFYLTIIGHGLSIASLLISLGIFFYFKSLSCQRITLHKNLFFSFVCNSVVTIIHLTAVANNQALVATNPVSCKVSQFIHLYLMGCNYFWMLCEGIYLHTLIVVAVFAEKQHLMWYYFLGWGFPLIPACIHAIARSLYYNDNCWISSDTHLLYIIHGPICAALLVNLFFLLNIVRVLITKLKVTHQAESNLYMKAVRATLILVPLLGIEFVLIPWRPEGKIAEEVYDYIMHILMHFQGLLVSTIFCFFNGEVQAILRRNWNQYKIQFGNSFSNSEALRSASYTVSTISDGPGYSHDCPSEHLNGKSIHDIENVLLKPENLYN
Chain of human CGRP receptor (O60894 27-148 limits assumed, chain 2 of 2): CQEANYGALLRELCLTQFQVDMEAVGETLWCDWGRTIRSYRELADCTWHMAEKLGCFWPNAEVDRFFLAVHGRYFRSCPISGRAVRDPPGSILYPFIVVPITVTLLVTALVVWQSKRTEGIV

Binder	Fold-improvement over 29G4v22 Ab [1] [fold]	IC50 [1] [nM]	Fold-improvement over 4E4 Ab [2] [fold]	IC50 [2] [nM]
B1	6.8	1.01	1.4	0.45
B2	3.6	1.48	1.2	0.55
B3	7.1	0.76	1.8	0.37
B4	4.8	1.34	0.4	1.54
B5	8.8	0.78	1.4	0.46
B6	5.8	0.93	1.6	0.42
B7	6.7	0.8	1.5	0.43
B8	6.6	0.81	1.4	0.46
B9	8.6	0.79	1.8	0.36
B10	3.9	1.63	0.4	1.59
B11	8.2	0.66	1.7	0.4
B12	5.8	0.93	1.4	0.47
B13	3.3	1.91	0.4	1.5
B14	4.5	1.4	0.4	1.5
B15	11.2	0.57	0.5	1.36
